From patent publication US20170304435A1 (GOVERNING COUNCIL OF THE UNIVERSITY OF TORONTO, published 2017) come the findings set out here.

Data set [1] concerns the molecule itself. Briefly: native PAGE and FLAG immunoblot, HBP-treated Jurkat cells.
Data set [2] addresses T1, TRAF2, endogenous in Jurkat cells (UniProt Q12933 2-501, limits assumed).
T1 construct: Endogenous protein probed by immunoblot with rabbit anti-TRAF2 (sc-876)
T1 sequence (looked up): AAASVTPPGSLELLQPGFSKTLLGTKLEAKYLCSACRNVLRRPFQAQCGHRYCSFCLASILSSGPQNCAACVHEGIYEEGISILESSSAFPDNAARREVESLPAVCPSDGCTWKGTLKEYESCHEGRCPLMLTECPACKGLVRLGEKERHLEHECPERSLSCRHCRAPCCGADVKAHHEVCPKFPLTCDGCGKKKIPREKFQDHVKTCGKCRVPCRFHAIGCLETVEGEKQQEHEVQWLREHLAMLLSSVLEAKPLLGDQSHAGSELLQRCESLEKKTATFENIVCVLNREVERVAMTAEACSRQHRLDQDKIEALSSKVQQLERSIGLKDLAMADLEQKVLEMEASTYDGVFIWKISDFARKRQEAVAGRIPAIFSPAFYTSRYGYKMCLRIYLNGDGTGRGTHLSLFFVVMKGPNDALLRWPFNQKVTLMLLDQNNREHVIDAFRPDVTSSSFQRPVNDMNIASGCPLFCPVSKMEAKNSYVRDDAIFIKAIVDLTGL
The data set is described as follows: FLAG-TIFA immunoprecipitation from Jurkat cells, immunoblot for TRAF2.
Procedure: Briefly, cells were lysed in 50 mM Hepes-KOH pH 8.0, 100 mM KCl, 2 mM EDTA, 0.1% NP40, 10% glycerol. Soluble cell lysates were pre-cleared for 2 hr with mouse IgG agarose (Sigma) and immunoprecipitated overnight at 4° C. Proteins eluted using 0.5 M NH₄OH pH 11 (for mass-spectrometry), or 3× FLAG-peptide (Sigma) (immunoblot analysis). […] Data were analyzed by Scaffold PTM (Proteome).

Data set [3] concerns the molecule itself. The data set is described as follows: confocal microscopy of FLAG-TIFA aggregates in HBP-treated 293T cells.
For data set [4], the target named is T2, TRAF6 (ubiquitin ligase, tumor necrosis factor receptor-associated factor 6), endogenous in Jurkat or 293T … (UniProt Q9Y4K3 1-522).
T2 construct: Endogenous protein detected by immunoblot or immunostaining with mouse anti-TRAF6 (sc-8409)
T2 sequence (looked up): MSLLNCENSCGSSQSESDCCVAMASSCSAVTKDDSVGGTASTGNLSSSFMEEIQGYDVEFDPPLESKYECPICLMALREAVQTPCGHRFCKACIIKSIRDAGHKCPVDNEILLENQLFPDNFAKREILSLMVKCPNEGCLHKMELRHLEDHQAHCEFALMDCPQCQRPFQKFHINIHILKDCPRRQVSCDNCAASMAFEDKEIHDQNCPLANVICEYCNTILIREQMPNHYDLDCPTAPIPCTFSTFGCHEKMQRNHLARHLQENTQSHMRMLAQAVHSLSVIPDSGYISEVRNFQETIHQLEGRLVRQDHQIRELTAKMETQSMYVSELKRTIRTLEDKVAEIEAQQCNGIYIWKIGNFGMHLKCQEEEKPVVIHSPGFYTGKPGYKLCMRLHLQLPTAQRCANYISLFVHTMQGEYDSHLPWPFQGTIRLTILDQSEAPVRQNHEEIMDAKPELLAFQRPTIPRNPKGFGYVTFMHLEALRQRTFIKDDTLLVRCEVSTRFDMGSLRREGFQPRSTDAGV
Briefly: FLAG immunoprecipitation from HBP-treated Jurkat cells, immunoblot for TRAF6. A general note: A western blot detects proteins with antibodies after separation by electrophoresis.
Procedure: Briefly, cells were lysed in 50 mM Hepes-KOH pH 8.0, 100 mM KCl, 2 mM EDTA, 0.1% NP40, 10% glycerol. Soluble cell lysates were pre-cleared for 2 hr with mouse IgG agarose (Sigma) and immunoprecipitated overnight at 4° C. Proteins eluted using 0.5 M NH₄OH pH 11 (for mass-spectrometry), or 3× FLAG-peptide (Sigma) (immunoblot analysis).

Data set [5] concerns the molecule itself. The data set is described as follows: confocal microscopy of TIFA aggregates in HBP-treated 293T cells.

B1: FLAG-TIFA wild type (TRAF-interacting forkhead associated protein A with one N-terminal FLAG sequence), from HBP-treated cells (other, not shown: small tags and cut ends)
chain: MTSFEDADTEETVTCLQMTVYHPGQLQCGIFQSISFNREKLPSSEVVKFGRNSNICHYTFQDKQVSRVQFSLQLFKKFNSSVLSFEIKNMSKKTNLIVDSRELGYLNKMDLPYRCMVRFGEYQFLMEKEDGESLEFFETQFILSPRSLLQENNWPPHRPIPEYGTYSLCSSQSSSPTEMDENES
modifications: phospho-threonine 9 (pT9), found only after treatment with HBP
notes: Forms oligomers after HBP; also called FLAG-TIFA wildtype (wt); Wt
Take B1: the binding result is given as “binds” in data set [1] and “no binding” in data set [2].

B2: FLAG-TIFA E178A (mutation in the TRAF6 binding site) (other, not shown: small tags and cut ends)
chain: MTSFEDADTEETVTCLQMTVYHPGQLQCGIFQSISFNREKLPSSEVVKFGRNSNICHYTFQDKQVSRVQFSLQLFKKFNSSVLSFEIKNMSKKTNLIVDSRELGYLNKMDLPYRCMVRFGEYQFLMEKEDGESLEFFETQFILSPRSLLQENNWPPHRPIPEYGTYSLCSSQSSSPTAMDENES
notes: Point mutant of FLAG-TIFA; stably expressed with endogenous TIFA knocked down; also called TRAF6 (E178A) mutant
For B2, the binding result in data set [3] is “binds”; in data set [4], “no binding”.

B3: FLAG-TIFA G50E/S66A (mutations in the FHA domain) (other, not shown: small tags and cut ends)
chain: MTSFEDADTEETVTCLQMTVYHPGQLQCGIFQSISFNREKLPSSEVVKFERNSNICHYTFQDKQVARVQFSLQLFKKFNSSVLSFEIKNMSKKTNLIVDSRELGYLNKMDLPYRCMVRFGEYQFLMEKEDGESLEFFETQFILSPRSLLQENNWPPHRPIPEYGTYSLCSSQSSSPTEMDENES
notes: Double point mutant of FLAG-TIFA; stably expressed with endogenous TIFA knocked down; also called FHA mutant
As to B3, the binding result in data set [4] was “no binding”.

B4: FLAG-TIFA T9A (other, not shown: small tags and cut ends)
chain: MTSFEDADAEETVTCLQMTVYHPGQLQCGIFQSISFNREKLPSSEVVKFGRNSNICHYTFQDKQVSRVQFSLQLFKKFNSSVLSFEIKNMSKKTNLIVDSRELGYLNKMDLPYRCMVRFGEYQFLMEKEDGESLEFFETQFILSPRSLLQENNWPPHRPIPEYGTYSLCSSQSSSPTEMDENES
notes: Point mutant of FLAG-TIFA made with QuickChange II; stably expressed with endogenous TIFA knocked down
Take B4: the binding result in data set [5] and in data set [4] was “no binding” throughout.
